Experiment [1] has as its target T1, CHO expressed human interferon gamma (hIFNγ) (human, UniProt P01579 24-161, glycosylated (highly glycosylated form purified)).
T1 chain: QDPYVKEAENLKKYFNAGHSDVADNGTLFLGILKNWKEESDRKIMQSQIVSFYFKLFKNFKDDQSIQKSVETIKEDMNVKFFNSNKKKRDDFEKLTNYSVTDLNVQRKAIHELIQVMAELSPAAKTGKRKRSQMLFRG
Put plainly: BIAcore.

Experiment [2] addresses T1, CHO expressed human interferon gamma …. Put plainly: BIAcore. On the technique in general: In SPR one partner is held on a chip, and binding of the other changes the refractive index at the surface.

Where two headings read alike, the source gives them in different places.

B1: GP-A IgG (antibody, V domains shown)
VH: QVQLVETGGGVVQPGRSLRLSCAASGFTFSSYAMHWVRQAPGKGLEWVAVISYDGSNKYYADSVKGRFTISRDNSKNTLYLQMNSLRAEDTAVYYCASDLVLTMTSRRAAFDIWGQGTMVTVSS
VL: SYELTQPPSVSVSPGQTARITCSGDVLARKYARWFQQKPGQAPVLVIYKDRERPSGIPERFSGSTSGTTVTLTISGAQVEDEADYYCYSAADNRGVFGGGTKLTVLR
As to B1, the Kd in experiment [1] and in experiment [2] was 8 nM throughout.

B2: Fab phage clone "GP-A" (Fab, V domains shown)
VH: QVQLVETGGGVVQPGRSLRLSCAASGFTFSSYAMHWVRQAPGKGLEWVAVISYDGSNKYYADSVKGRFTISRDNSKNTLYLQMNSLRAEDTAVYYCASDLVLTMTSRRAAFDIWGQGTMVTVSS
VL: SYELTQPPSVSVSPGQTARITCSGDVLARKYARWFQQKPGQAPVLVIYKDRERPSGIPERFSGSTSGTTVTLTISGAQVEDEADYYCYSAADNRGVFGGGTKLTVLR
Consider B2, for which the Kd in experiment [1] was 150 nM. That is a sub-micromolar value.

B3: 57E IgG (antibody, V domains shown)
VH: QVQLQESGPGLVKPSETLSLTCAVSGGSISSGGYSWSWIRQPPGKGLEWIGYIYHSGSTYYNPSLKSRVTISVDRSKNQFSLKLSSVTAADTAVYYCARGDWGYFDYWGQGTLVTVSS
VL: NFMLTQPHSVSESPGKTVTISCTGSSGSIANNYVHWYQQRPGSAPTTVIFEDDQRPSGVPDRFSGSVDSSSNSASLSISGLKTEDEADYYCQSYDNSNSFVVFGGGTKLTVLG
For the molecule B3, the Kd in experiment [2] was 200 nM.

B4: Fab phage clone "IFN-A" (Fab, V domains shown)
VH: EVQLQQWGAGLLKPSETLSLTCAVYGGSFSGYYWSWIRQPPGKGLEWIGEINHSGSTNYNPSLKSRVTISVDTSKNQFSLKLSSVTAADTAVYYCARGWPTYVWGSYRPKGYFDYWGQGTLVTVSS
VL: EIVLTQSPLSLPVTPGEPASISCRSSQSLLHTNEYNYLDWYLQKPGQSPQLLIYLGSNRAPGVPDRFSGSGSGTDFTLRISRVEADDVGVYYCMQALQTPRTFGQGTKLEIKR
In turn, B4 showed a Kd in experiment [1] of 420 nM.

B5: IFN-A IgG (antibody, V domains shown)
VH: EVQLQQWGAGLLKPSETLSLTCAVYGGSFSGYYWSWIRQPPGKGLEWIGEINHSGSTNYNPSLKSRVTISVDTSKNQFSLKLSSVTAADTAVYYCARGWPTYVWGSYRPKGYFDYWGQGTLVTVSS
VL: EIVLTQSPLSLPVTPGEPASISCRSSQSLLHTNEYNYLDWYLQKPGQSPQLLIYLGSNRAPGVPDRFSGSGSGTDFTLRISRVEADDVGVYYCMQALQTPRTFGQGTKLEIKR
On to B5, for which the Kd in experiment [1] and in experiment [2] was 18 nM throughout.

B6: BS-B Fab (soluble, purified) (Fab, V domains shown)
VH: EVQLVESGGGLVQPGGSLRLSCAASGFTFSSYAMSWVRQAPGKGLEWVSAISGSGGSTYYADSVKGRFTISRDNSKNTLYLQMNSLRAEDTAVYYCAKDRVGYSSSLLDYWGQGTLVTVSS
VL: NFMLTQPHSVSESPGKTVTISCTRSSGSIASYYVQWYQQRPGSSPTTVIYEDDQRPSGVPDRFSGSIDSASNSASLTISGLQTEDEADYYCQSYDRNSLVFGGGTKLTVLG
B6: in experiment [1], the Kd came to 83.5 nM.

B7: BS-B IgG (antibody, V domains shown)
VH: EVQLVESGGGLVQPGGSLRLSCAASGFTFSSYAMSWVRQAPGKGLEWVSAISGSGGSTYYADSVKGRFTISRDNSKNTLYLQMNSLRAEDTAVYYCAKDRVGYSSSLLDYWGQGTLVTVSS
VL: NFMLTQPHSVSESPGKTVTISCTRSSGSIASYYVQWYQQRPGSSPTTVIYEDDQRPSGVPDRFSGSIDSASNSASLTISGLQTEDEADYYCQSYDRNSLVFGGGTKLTVLG
On to B7, for which the Kd in experiment [1] and in experiment [2] was 0.5 nM each time.

B8: BS-A Fab (soluble, purified) (Fab, V domains shown)
VH: QVQLQQWGAGLLKPSETLSLTCAVYGGSFSGYYWSWIRQPPGKGLEWIGEINHSGSTNYNPSLKSRVTISVDTSKNQFSLKLSSVTAADTAVYYCARGRARNWRSRFDYWGQGTLVTVSS
VL: NFMLTQPHSVSESPGKTVTISCTGSSGSIASHYVQWYQQRPGSAPTNVIYEDKERPSGVPDRFSGSIDSSTNSASLTISGLKTEDEADYYCQSYDSSNQWVFGGGTKLTVLG
In experiment [1], B8 came in with a Kd of 84.3 nM.

B9: BS-A IgG (antibody, V domains shown)
VH: QVQLQQWGAGLLKPSETLSLTCAVYGGSFSGYYWSWIRQPPGKGLEWIGEINHSGSTNYNPSLKSRVTISVDTSKNQFSLKLSSVTAADTAVYYCARGRARNWRSRFDYWGQGTLVTVSS
VL: NFMLTQPHSVSESPGKTVTISCTGSSGSIASHYVQWYQQRPGSAPTNVIYEDKERPSGVPDRFSGSIDSSTNSASLTISGLKTEDEADYYCQSYDSSNQWVFGGGTKLTVLG
As for B9, the Kd in experiment [1] and in experiment [2] was 6 nM throughout.

Usually Kd stands for the equilibrium constant for the complex coming apart.

Values taken from patent publication US20030099647A1 (published 2003).
